B1: P-NAD5_(SHP-UBX) (P-NAD5 with helix1 and the SEP domain deleted) (other)
chain: QVQLVESGGALVQPGGSLRLSCAASGFPVNRYSMRWYRQAPGKEREWVAGMSSAGDRSSYEDSVKGRFTISRDDARNTVYLQMNSLKPEDTAVYYCNVNVGFEYWGQGTQVTVSSEPPKPKNPFQGVGRTLGASGSGSSSAPQASSAPMNVAPAPSRGLVVDPAAPTTSIQLRLADGTRLVSRFNNHHTVRDVRGFIDASRPGGSKEYQLLTMGFPPKQLTELDQTIEQAGIANAVVIQKF
B2: Arabidopsis PUX3 (natural protein, Arabidopsis thaliana, UniProt Q9SUG6 1-302, looked up)
chain: MSSKDKKLSKPTSGRTGGIRTLSDLNRRSEPDSDSDSDGPQEYFTGGEKSGMLVQDPTKEPKHDDVDEIFNQARQLGAVEGPLEHPSSSRSFTGTGRLLSGESVPTALQQPEPVIHNIIFWSNGFTVDDGPLRKLDDPENASFLDSIRKSECPKELEPVDKRAPVHVNLMRRDEKCPEKEKLKVSFQGVGRTLGGASSSTASSQSNLTDVAAVQSPLQSLVVDETLPSTSIQLRLADGTRMVAKFNNHHTVNDIRGFIEFSRPGNPNNYTLQVMGFPPKPLTDPSQTIEQAGLASSVVIQKF
B3: Arabidopsis PUX4 (natural protein, Arabidopsis thaliana, UniProt Q8RWU7 1-303, looked up)
chain: MSSKDKKPSKPSSSRGGIRTLSDLNRRSGPDSDSDSDGPQEYYTGGEKSGMLVQDPSKKDDVDEIFNQARQLGAVEGPLEPPPSSRSFTGTGRLLSGENVPTGNQQPEPVVHNIVFWSNGFTIDDGPLRKLDDPENASFLESIRKSECPKELEPADRRAPVHVNLMRKEEKCPERQKRRVSFQGVGRTLGGSNEGSGSSSPVAPDSAPIPIQTEPAPSQSLVIDETVPTTSIQLRLADGTRLVAKFNHHHTVNDIRGFIDSSRPGASLNYQLQTMGFPPKPLTDLTQTIEEAGLANSVVLQKF

These binders were tested against CDC48A-ND1 (a CDC48A construct containing the N and first ATPase domains) (Arabidopsis thaliana, UniProt P54609 1-484) (assay: ITC).
Chain of CDC48A-ND1 (a CDC48A construct containing the N and first ATPase domains) (P54609 1-484): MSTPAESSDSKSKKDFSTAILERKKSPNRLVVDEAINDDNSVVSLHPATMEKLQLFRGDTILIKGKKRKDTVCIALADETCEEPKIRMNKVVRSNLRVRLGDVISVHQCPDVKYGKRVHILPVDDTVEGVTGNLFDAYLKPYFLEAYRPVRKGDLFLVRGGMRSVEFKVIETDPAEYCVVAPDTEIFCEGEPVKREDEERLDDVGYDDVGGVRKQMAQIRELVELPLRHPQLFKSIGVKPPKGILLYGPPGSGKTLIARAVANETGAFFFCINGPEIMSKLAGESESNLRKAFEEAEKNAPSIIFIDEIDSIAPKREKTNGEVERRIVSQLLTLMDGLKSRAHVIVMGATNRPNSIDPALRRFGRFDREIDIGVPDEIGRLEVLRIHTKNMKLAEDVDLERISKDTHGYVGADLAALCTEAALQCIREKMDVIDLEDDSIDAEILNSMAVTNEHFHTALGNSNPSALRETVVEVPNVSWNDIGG

Which results are given for B1?
Kd: 12.3 ± 3.7 µM; stoichiometry N: 1

What does the source list for B2?
Kd: 5.6 ± 1.6 µM; stoichiometry N: ~0.5

How did the Kd turn out when B3 was run?
The Kd was 2.7 ± 0.9 µM.

And the “stoichiometry N” value?
Its value is roughly 0.5.
